The values below come from patent US20060084792A1 (UNITED STATES OF AMERICA AS REPRESENTED BY THE …, published 2006).

Data set [1] concerns the molecule itself. The data set can be described thus: summary of native PAGE and TEM; self-assembly of subunits. The procedure: (§1) The purity of the proteins was evaluated using denaturing polyacrylamide gel electrophoresis (GeneMate 8-16% Express Gels, ISC BioExpress). The ability of each of the circular permutations to form double rings was assessed by non-denaturing 4-40% gradient polyacrylamide gel (FIG. 18) as previously described (J K Trent, et al., 1991 Nature 354:490-493).
(§2) Samples were prepared for the electron microscope by drop casting on carbon-coated formvar substrates (Ladd) and stained with 1% uranyl acetate. Samples were visualized using a Leo 912AB electron microscope in bright field TEM mode at 65 kV with a tungsten filament electron source.
(§3) Samples of the five different circular permutated chaperonin polypeptides (without the joined EYFP sequence) were analyzed at 1 hour or 24 hours after addition of 1 mM ATP and 25 mM Mg²⁺ (FIG. 19A-J). All five circular permuted chaperonins analyzed formed double rings having the same structure as wild-type chaperonin double rings, with two rings of nine subunits each (FIG. 19A-E). […] The circular permutated chaperonin polypeptides 480 and 499 formed predominantly filamentous structures. For permutants at positions 480 and 499, heating the sample to 70 degrees C. for 30 minutes immediately after addition of ATP and Mg²⁺ produced longer filaments.

Data set [2] concerns the molecule itself. The data set can be described thus: non-denaturing gradient PAGE (FIG. 18) and TEM; self-assembly of subunits. The procedure:
as §1, §2, §3

Data set [3] deals with the molecule itself. The data set can be described thus: TEM, negative stain, after adding 1 mM ATP and 25 mM Mg2+; self-assembly of subunits. The protocol: as §2, §3

B1: position 267 circular permutant chaperonin protein (Sulfolobus shibatae TF55 beta subunit, termini relocated after residue 267) (other)
chain: MADPTQMHKFLEEEENILKEKVDKIAATGANVVIAQKGIDEVAQHYLAKKGILAVRRAKKSDLEKLARATGGRVISNIDELTSQDLGYAALVEERKVGEDKIVFVEGAKNPKSVSILIRGGLERVVDETERALRDALGTVADVIRDGRAVAGGGAVEIEIAKRLRKYAPQVGGKEQLAIEAYANAIEGLIMILAENAGLDPIDKLMQLRSLHENETNKWYGLNLFTGNPEDMWKLGVIEPALVKMNAIKAATEAVTLVLRIDDIVGGSGGTIPVIILKEGSSRTYGKEALRANIAAVKAIEEALKSTYGPRGMDKILVDSLGDITITNDGATILDKMDLQHPTGKLLVQIAKGQDEETADGTKTAVILAGELAKKAEDLLYKEIHPTIIVSGYKKAEEIALKTIQDIAQPVSINDTDVLRKVALTSLGSKAVAGAREYLADLVVKAVAQVAELRGDKWYVDLDNVQIVKKHGGSINDTQLVYGIVVDKEVVHPGMPKRIENAKIALLDASLEVEKPELDAEIRIN
notes: Entry is the single subunit; Original termini are joined by the linker GGSGGT; Assembles into double rings with two rings of nine subunits each
With B1, the binding result in data set [1] is listed as “binds”.

B2: position 480 circular permutant chaperonin protein (Sulfolobus shibatae TF55 beta subunit, termini relocated after residue 480) (other)
chain: MANKWYGLNLFTGNPEDMWKLGVIEPALVKMNAIKAATEAVTLVLRIDDIVGGSGGTIPVIILKEGSSRTYGKEALRANIAAVKAIEEALKSTYGPRGMDKILVDSLGDITITNDGATILDKMDLQHPTGKLLVQIAKGQDEETADGTKTAVILAGELAKKAEDLLYKEIHPTIIVSGYKKAEEIALKTIQDIAQPVSINDTDVLRKVALTSLGSKAVAGAREYLADLVVKAVAQVAELRGDKWYVDLDNVQIVKKHGGSINDTQLVYGIVVDKEVVHPGMPKRIENAKIALLDASLEVEKPELDAEIRINDPTQMHKFLEEEENILKEKVDKIAATGANVVIAQKGIDEVAQHYLAKKGILAVRRAKKSDLEKLARATGGRVISNIDELTSQDLGYAALVEERKVGEDKIVFVEGAKNPKSVSILIRGGLERVVDETERALRDALGTVADVIRDGRAVAGGGAVEIEIAKRLRKYAPQVGGKEQLAIEAYANAIEGLIMILAENAGLDPIDKLMQLRSLHENET
notes: Entry is the single subunit; Original termini are joined by the linker GGSGGT; Assembles into double rings with two rings of nine subunits each; also called circular permutant at position 480; permutant 480
Consider B2, for which the binding result in data set [2] was “binds”.

B3: position 499 circular permutant chaperonin protein (Sulfolobus shibatae TF55 beta subunit, termini relocated after residue 499) (other)
chain: MALGVIEPALVKMNAIKAATEAVTLVLRIDDIVGGSGGTIPVIILKEGSSRTYGKEALRANIAAVKAIEEALKSTYGPRGMDKILVDSLGDITITNDGATILDKMDLQHPTGKLLVQIAKGQDEETADGTKTAVILAGELAKKAEDLLYKEIHPTIIVSGYKKAEEIALKTIQDIAQPVSINDTDVLRKVALTSLGSKAVAGAREYLADLVVKAVAQVAELRGDKWYVDLDNVQIVKKHGGSINDTQLVYGIVVDKEVVHPGMPKRIENAKIALLDASLEVEKPELDAEIRINDPTQMHKFLEEEENILKEKVDKIAATGANVVIAQKGIDEVAQHYLAKKGILAVRRAKKSDLEKLARATGGRVISNIDELTSQDLGYAALVEERKVGEDKIVFVEGAKNPKSVSILIRGGLERVVDETERALRDALGTVADVIRDGRAVAGGGAVEIEIAKRLRKYAPQVGGKEQLAIEAYANAIEGLIMILAENAGLDPIDKLMQLRSLHENETNKWYGLNLFTGNPEDMWK
notes: Entry is the single subunit; Original termini are joined by the linker GGSGGT; Assembles into double rings with two rings of nine subunits each; also called circular permutant at position 499; permutant 499
As for B3, the binding result in data set [2] was “binds”.

B4: position 153 circular permutant chaperonin protein (Sulfolobus shibatae TF55 beta subunit, termini relocated after residue 153) (other)
chain: MAINDTDVLRKVALTSLGSKAVAGAREYLADLVVKAVAQVAELRGDKWYVDLDNVQIVKKHGGSINDTQLVYGIVVDKEVVHPGMPKRIENAKIALLDASLEVEKPELDAEIRINDPTQMHKFLEEEENILKEKVDKIAATGANVVIAQKGIDEVAQHYLAKKGILAVRRAKKSDLEKLARATGGRVISNIDELTSQDLGYAALVEERKVGEDKIVFVEGAKNPKSVSILIRGGLERVVDETERALRDALGTVADVIRDGRAVAGGGAVEIEIAKRLRKYAPQVGGKEQLAIEAYANAIEGLIMILAENAGLDPIDKLMQLRSLHENETNKWYGLNLFTGNPEDMWKLGVIEPALVKMNAIKAATEAVTLVLRIDDIVGGSGGTIPVIILKEGSSRTYGKEALRANIAAVKAIEEALKSTYGPRGMDKILVDSLGDITITNDGATILDKMDLQHPTGKLLVQIAKGQDEETADGTKTAVILAGELAKKAEDLLYKEIHPTIIVSGYKKAEEIALKTIQDIAQPVS
notes: Entry is the single subunit; Original termini are joined by the linker GGSGGT; also called circular permutant at position 153; permutant 153
B4: the binding result in data set [3] is reported as “binds”.

B5: position 316 circular permutant chaperonin protein (Sulfolobus shibatae TF55 beta subunit, termini relocated after residue 316) (other)
chain: MAILAVRRAKKSDLEKLARATGGRVISNIDELTSQDLGYAALVEERKVGEDKIVFVEGAKNPKSVSILIRGGLERVVDETERALRDALGTVADVIRDGRAVAGGGAVEIEIAKRLRKYAPQVGGKEQLAIEAYANAIEGLIMILAENAGLDPIDKLMQLRSLHENETNKWYGLNLFTGNPEDMWKLGVIEPALVKMNAIKAATEAVTLVLRIDDIVGGSGGTIPVIILKEGSSRTYGKEALRANIAAVKAIEEALKSTYGPRGMDKILVDSLGDITITNDGATILDKMDLQHPTGKLLVQIAKGQDEETADGTKTAVILAGELAKKAEDLLYKEIHPTIIVSGYKKAEEIALKTIQDIAQPVSINDTDVLRKVALTSLGSKAVAGAREYLADLVVKAVAQVAELRGDKWYVDLDNVQIVKKHGGSINDTQLVYGIVVDKEVVHPGMPKRIENAKIALLDASLEVEKPELDAEIRINDPTQMHKFLEEEENILKEKVDKIAATGANVVIAQKGIDEVAQHYLAKKG
notes: Entry is the single subunit; Original termini are joined by the linker GGSGGT; Assembles into double rings with two rings of nine subunits each; also called circular permutant at position 316; permutant 316
B5: the binding result in data set [2] is on record as “binds”.
